# Measurements reported in the supplement of paper PMC5998384.
# Legend:
# HeLa Kyoto [1] = test: solubility in G1/S (NP-40 vs SDS abundance) (log2 ratio); higher = more soluble; conditions: cell cycle stage: G1/S
# HeLa Kyoto [2] = test: thermal stability score vs G1/S (z-score of summed log2 fold changes over temperatures); higher = more thermally stable than in G1/S
# HeLa Kyoto [3] = test: solubility change mitosis vs G1/S (difference of NP-40 vs SDS log2 ratios) (log2 ratio difference); higher = more soluble in mitosis
# HeLa Kyoto [4] = test: melting temperature (median over replicates), in situ; higher = more thermally stable
# [5] = cell cycle stage: early G1 (4.5 h after nocodazole release)
# 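For melting temperature (median over replicates), in situ in this document: HeLa Kyoto cells synchronized by double thymidine or nocodazole block, proteins quantified by TMT10plex mass spectrometry, three independent biological replicates.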
# 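For solubility change mitosis vs G1/S (difference of NP-40 vs SDS log2 ratios) in this document: synchronized HeLa Kyoto cells (double thymidine block for G1/S, nocodazole release for mitosis), protein amounts in NP-40 versus SDS lysates quantified by mass spectrometry, three biological replicates.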
# 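For solubility in G1/S (NP-40 vs SDS abundance) in this document: HeLa Kyoto cells arrested at G1/S by double thymidine block, proteins quantified by TMT10plex mass spectrometry in mild NP-40 versus SDS extracts, three biological replicates.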
# 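For thermal stability score vs G1/S (z-score of summed log2 fold changes over temperatures) in this document: synchronized HeLa Kyoto cells, proteins quantified by TMT10plex mass spectrometry, three biological replicates, mitosis taken 0.5 h after nocodazole release, G1/S directly after double thymidine block.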
Sequence,solubility in G1/S (log2) (HeLa Kyoto [1]),thermal stability score (HeLa Kyoto [2]; [5]),thermal stability score (HeLa Kyoto [2]; cell cycle stage: mitosis),solubility change mitosis (log2) (HeLa Kyoto [3]),melting temperature (HeLa Kyoto [4]; cell cycle stage: G1/S) [°C],melting temperature (HeLa Kyoto [4]; cell cycle stage: mitosis) [°C]
MSSNECFKCGRSGHWARECPTGGGRGRGMRSRGRGGFTSDRGFQFVSSSLPDICYRCGESGHLAKDCDLQEDACYNCGRGGHIAKDCKEPKREREQCCYNCGKPGHLARDCDHADEQKCYSCGEFGHIQKDCTKVKCYRCGETGHVAINCSKTSEVNCYRCGESGHLARECTIEATA [CNBP],-0.223,-1.16,-2.48,-0.0883,57.6,58.8
MSSNSFPYNEQSGGGEATELGQEATSTISPSGAFGLFSSDLKKNEDLKQMLESNKDSAKLDAMKRIVGMIAKGKNASELFPAVVKNVASKNIEIKKLVYVYLVRYAEEQQDLALLSISTFQRALKDPNQLIRASALRVLSSIRVPIIVPIMMLAIKEASADLSPYVRKNAAHAIQKLYSLDPEQKEMLIEVIEKLLKDKSTLVAGSVVMAFEEVCPDRIDLIHKNYRKLCNLLVDVEEWGQVVIIHMLTRYARTQFVSPWKEGDELEDNGKNFYESDDDQKEKTDKKKKPYTMDPDHRLLIRNTKPLLQSRNAAVVMAVAQLYWHISPKSEAGIISKSLVRLLRSNREVQYIVLQNIATMSIQRKGMFEPYLKSFYVRSTDPTMIKTLKLEILTNLANEANISTLLREFQTYVKSQDKQFAAATIQTIGRCATNILEVTDTCLNGLVCLLSNRDEIVVAESVVVIKKLLQMQPAQHGEIIKHMAKLLDSITVPVARASILWLIGENCERVPKIAPDVLRKMAKSFTSEDDLVKLQILNLGAKLYLTNSKQTKLLTQYILNLGKYDQNYDIRDRTRFIRQLIVPNVKSGALSKYAKKIFLAQKPAPLLESPFKDRDHFQLGTLSHTLNIKATGYLELSNWPEVAPDPSVRNVEVIELAKEWTPAGKAKQENSAKKFYSESEEEEDSSDSSSDSESESGSESGEQGESGEEGDSNEDSSEDSSSEQDSESGRESGLENKRTAKRNSKAKGKSDSEDGEKENEKSKTSDSSNDESSSIEDSSSDSESESEPESESESRRVTKEKEKKTKQDRTPLTKDVSLLDLDDFNPVSTPVALPTPALSPSLMADLEGLHLSTSSSVISVSTPAFVPTKTHVLLHRMSGKGLAAHYFFPRQPCIFGDKMVSIQITLNNTTDRKIENIHIGEKKLPIGMKMHVFNPIDSLEPEGSITVSMGIDFCDSTQTASFQLCTKDDCFNVNIQPPVGELLLPVAMSEKDFKKEQGVLTGMNETSAVIIAAPQNFTPSVIFQKVVNVANVGAVPSGQDNIHRFAAKTVHSGSLMLVTVELKEGSTAQLIINTEKTVIGSVLLRELKPVLSQG [AP3B1],-0.0793,-0.704,-0.939,-0.0973,50.6,50
MSSRKLSGPKGRRLSIHVVTWNVASAAPPLDLSDLLQLNNRNLNLDIYVIGLQELNSGIISLLSDAAFNDSWSSFLMDVLSPLSFIKVSHVRMQGILLLVFAKYQHLPYIQILSTKSTPTGLFGYWGNKGGVNICLKLYGYYVSIINCHLPPHISNNYQRLEHFDRILEMQNCEGRDIPNILDHDLIIWFGDMNFRIEDFGLHFVRESIKNRCYGGLWEKDQLSIAKKHDPLLREFQEGRLLFPPTYKFDRNSNDYDTSEKKRKPAWTDRILWRLKRQPCAGPDTPIPPASHFSLSLRGYSSHMTYGISDHKPVSGTFDLELKPLVSAPLIVLMPEDLWTVENDMMVSYSSTSDFPSSPWDWIGLYKVGLRDVNDYVSYAWVGDSKVSCSDNLNQVYIDISNIPTTEDEFLLCYYSNSLRSVVGISRPFQIPPGSLREDPLGEAQPQI [INPP5K],-0.384,-0.0552,0.149,-0.0846,,51.8
MSSRKSKSNSLIHTECLSQVQRILRERFCRQSPHSNLFGVQVQYKHLSELLKRTALHGESNSVLIIGPRGSGKTMLINHALKELMEIEEVSENVLQVHLNGLLQINDKIALKEITRQLNLENVVGDKVFGSFAENLSFLLEALKKGDRTSSCPVIFILDEFDLFAHHKNQTLLYNLFDISQSAQTPIAVIGLTCRLDILELLEKRVKSRFSHRQIHLMNSFGFPQYVKIFKEQLSLPAEFPDKVFAEKWNENVQYLSEDRSVQEVLQKHFNISKNLRSLHMLLMLALNRVTASHPFMTAVDLMEASQLCSMDSKANIVHGLSVLEICLIIAMKHLNDIYEEEPFNFQMVYNEFQKFVQRKAHSVYNFEKPVVMKAFEHLQQLELIKPMERTSGNSQREYQLMKLLLDNTQIMNALQKYPNCPTDVRQWATSSLSWL [ORC4],0.194,1.97,2.38,-0.248,48.8,49.6
MSSSHFASRHRKDISTEMIRTKIAHRKSLSQKENRHKEYERNRHFGLKDVNIPTLEGRILVELDETSQGLVPEKTNVKPRAMKTILGDQRKQMLQKYKEEKQLQKLKEQREKAKRGIFKVGRYRPDMPCFLLSNQNAVKAEPKKAIPSSVRITRSKAKDQMEQTKIDNESDVRAIRPGPRQTSEKKVSDKEKKVVQPVMPTSLRMTRSATQAAKQVPRTVSSTTARKPVTRAANENEPEGKVPSKGRPAKNVETKPDKGISCKVDSEENTLNSQTNATSGMNPDGVLSKMENLPEINTAKIKGKNSFAPKDFMFQPLDGLKTYQVTPMTPRSANAFLTPSYTWTPLKTEVDESQATKEILAQKCKTYSTKTIQQDSNKLPCPLGPLTVWHEEHVLNKNEATTKNLNGLPIKEVPSLERNEGRIAQPHHGVPYFRNILQSETEKLTSHCFEWDRKLELDIPDDAKDLIRTAVGQTRLLMKERFKQFEGLVDDCEYKRGIKETTCTDLDGFWDMVSFQIEDVIHKFNNLIKLEESGWQVNNNMNHNMNKNVFRKKVVSGIASKPKQDDAGRIAARNRLAAIKNAMRERIRQEECAETAVSVIPKEVDKIVFDAGFFRVESPVKLFSGLSVSSEGPSQRLGTPKSVNKAVSQSRNEMGIPQQTTSPENAGPQNTKSEHVKKTLFLSIPESRSSIEDAQCPGLPDLIEENHVVNKTDLKVDCLSSERMSLPLLAGGVADDINTNKKEGISDVVEGMELNSSITSQDVLMSSPEKNTASQNSILEEGETKISQSELFDNKSLTTECHLLDSPGLNCSNPFTQLERRHQEHARHISFGGNLITFSPLQPGEF [DLGAP5],0.097,0.319,1.63,-0.122,49.6,49.5
